T1: CXCL7 (human)
T1 chain: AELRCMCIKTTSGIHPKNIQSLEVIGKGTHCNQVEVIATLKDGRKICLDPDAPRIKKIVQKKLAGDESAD

B1: P1124_IXORI (natural protein)
chain: DSKGTSDSQDSTKSIKVDFCETNCTKTDGGWTGCTGDCICVSVGDSIEGRCMDFG
B2: P1104 (natural protein)
chain: ESKEASASQGPGKSFKVEFCETNCTENNGVWSGCTGDCICVSVGDSKEGRCMDLGDKVIDTPVAQG
modifications: also: glycosylated
B3: P942 (natural protein)
chain: DGGNQLSGPQSSANSNEAVFCDTNCTQGTDEAWSGCRGDCFCVYVGNSTEGRCMMLSGDFDYSTPGAED
modifications: also: glycosylated
B4: P1172_IXORI (natural protein)
chain: FLLKSQLCYCLFGIELIGAGIHALHEDEIFTVDYCGTNCTKQSNGSWTTCPGNCSCYHEDGKTDGFCLSTEYTDFTQFPNLTSEEMDAATPRPE
B5: P1100_IXORI (natural protein)
chain: GSKGSSASQSSDNSVVAKFCDTNCTINEGGKWTECKGGCFCVHVGNETVGRCMKLDGDYDYPSPKPEE
B6: P675 (natural protein)
chain: GSNQLSGPQSSANSNDAVFCDTNCTQGTDGAWSGCRGDCFCVHVGNSTEGRCIELIGDFDYSTPGAED
modifications: also: glycosylated
B7: P1078_IXORI (natural protein)
chain: GSKGSSAQQSSHDSIKAEFCETNCTMKTGGKWTQCHGGCFCVHVGNETVGRCIKLDGDYDYPSSKHEE
B8: CXCL11 (ligand)
chain: FPMFKRGRCLCIGPGVKAVKVADIEKASIMYPSNNCDKIEVIITLKENKGQRCLNPKSKQARLIIKKVERKNF
B9: P1134 (natural protein)
chain: NEEVFTVEYCGMNCTQKSDGTWTECSGKNKDCRCYHESDAREGLCLSTEYTDFSQFETPSNSDLEAATPRPRKTLYPVRNPHGPKTRGLGYDKRILRDRVKFLI
modifications: glycosylated (periodic acid–Schiff staining)
B10: P1090_IXORI (natural protein)
chain: GSKELSGPESSENSIEAAFCDTNCTEGTDGVWSGCSAGCFCVHVGNSTVGRCMTFNGVD
B11: CXCL4 (ligand)
chain: EAEEDGDLQCLCVKTTSQVRPRHITSLEVIKAGPHCPTAQLIATLKNGRKICLDLQAPLYKKIIKKLLES
B12: P1170_IXORI (natural protein)
chain: LGDEDQLFSVEYCGTNCTQQDDGKWTPCSGKNGKCKCYHEDGKRYGLCLYTEYTDFSQYPNPEGSEIENTRPRP
B13: P1142 (natural protein)
chain: DGGKPQILQRTDHSTDSDWDPQMCPETCNPSKNISCSSECLCVTLGGGDETGTCFNMSGVDWLGHAQASDGHNDGGGASAWSHPQFEKLEHHHHHHHH
modifications: glycosylated (periodic acid–Schiff staining)
B14: CXCL13 (ligand)
chain: VLEVYYTSLRCRCVQESSVFIPRRFIDRIQILPRGNGCPRKEIIVWKKNKSIVCVDPQAEWIQRMMEVLRKRSSSTLPVPVFKRKIP
B15: P1126 (natural protein)
chain: DGGKPQILQRTDKSTDSEWDPQTCPETCIPSKNITCSDGCVCVKLGEEEEGTCFNMTGVDWLGSPSDD
modifications: also: glycosylated
B16: Evasin 3 (EVA3) (natural protein)
chain: DGGLVSTIESRTSGDGADNFDVVSCNKNCTSGQNECPEGCFCGLLGQNKKGHCYKIIGNLSGEPPVVRR
modifications: also: glycosylated
B17: P1080_IXORI (natural protein)
chain: SAGSKGSSAPQSSGDSVVAEFCDTNCTMKKDGKWTECNGDCFCVHVGNETVGRCMRLDGDYDYTSSKTTRRNKKTRNGLCRLDRNRTTVDYPERNTREP
B18: P1086_IXORI (natural protein)
chain: GSKGQRASQVSETSITAEFCDTSCTQGTDKTWSGCSGDCFCVHVGNDTEGRCMRWDGDYPSAEEEE

Tests used:
Test in all cases: BLI
CXCL2 = CXCL2 (human, UniProt P19875 35-107)
CXCL5 = CXCL5 (human)
CXCL13 = target: B14
CXCL3 = CXCL3 (human, UniProt P19876 35-107)
CXCL1 = CXCL1 (human, UniProt P09341 35-107)
CXCL12 = CXCL12 (human, UniProt P48061 22-93)
CXCL6 = CXCL6 (human)
CXCL4 = target: B11
CXCL11 = target: B8
[1] = target: CXC-motif chemokine ligand 10 (CXCL10) (human, UniProt P02778 22-98)
CXCL8 = CXCL8 (human)
P1074_IXORI = P1074_IXORI (Ixodes ricinus, UniProt A0A0K8RDH6 29-96)
CXCL7 = target: T1, CXCL7

Chain of CXCL8 (human) (chain, as listed by the source): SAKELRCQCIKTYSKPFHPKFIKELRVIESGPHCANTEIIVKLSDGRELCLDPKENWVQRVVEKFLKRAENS

Binder | Kd (CXCL2) [nM] | Kd (CXCL5) [nM] | Kd (CXCL13) [nM] | Kd (CXCL3) [nM] | Kd (CXCL1) [nM] | Kd (CXCL12) [nM] | Kd (CXCL6) [nM] | Kd (CXCL4) [nM] | Kd (CXCL11) [nM] | Kd [1] [nM] | Kd (CXCL8) [nM] | Kd (P1074_IXORI) [nM] | Kd (CXCL7) [nM]
B1 | 13.8 | 26.4 | 256 | 8.84 | 7.61 | 212 |  |  |  |  |  |  | 
B2 | 82.3 | 24.5 | 220 | 43.7 | 14.4 | 67.8 | 34.3 |  |  |  |  |  | 
B3 | 6.48 | 21.1 | 39.5 | 5.04 | 3.09 |  | 7.28 | 148 | 12.4 | 133 |  |  | 
B4 | 26 | 59.3 |  |  | 5.59 |  |  |  |  |  | 26.7 |  | 
B5 |  | 50.8 |  | 55.9 | 49.9 |  | 15.2 |  | 102 | 380 |  |  | 
B6 | 24.8 | 34.2 | 582 | 35.7 | 9.99 |  |  | 422 | 7.73 | 3120 |  |  | 
B7 | 68.3 | 39.2 | 255 | 43.8 | 6.35 |  |  |  | 16.7 |  |  |  | 
B8 |  |  |  |  |  |  |  |  |  |  |  | 12 | 
B9 |  |  |  |  | 27.3 |  |  |  |  |  |  |  | 
B10 | 3.03 | 43 | 12.5 | 7.67 | 3.55 |  | 2.82 |  | 3.85 | 23.9 |  |  | 
B11 |  |  |  |  |  |  |  |  |  |  |  | 157 | 
B12 |  |  |  |  | 59.6 |  |  |  |  |  | 12.3 |  | 
B13 | 2.14 | 9.81 |  | 5.65 | 4.61 |  | 6.27 | 381 | 322 | 7.46 |  |  | 1.83
B14 |  |  |  |  |  |  |  |  |  |  |  | 95.8 | 
B15 | 5.11 | 12.1 |  | 13.3 | 10.5 |  | 9.12 | 393 | 394 | 7.9 |  |  | 6.05
B16 | 7.49 | 24.9 |  | 7.37 | 5.73 |  | 1.03 |  |  |  | 2.57 |  | 
B17 |  | 55.1 | 1110 | 124 |  |  | 61 | 2310 |  | 1260 |  |  | 
B18 |  |  |  | 15.2 |  |  |  |  |  | 18.7 |  |  | 
